From doi:10.1101/2020.11.10.376558

Test system: GST-N571 (CIZ1 N-terminal fragment with PLD1 and PLD2) (Mus musculus)
Assay: EMSA

Substance | K half
Xist repeat E proximal (sense) | 100 nM
Xist repeat A sense | 200 nM
